Data: patent US20120071394A1

Biological target: human C5a receptor (C5aR) (human) (UniProt P21730)
Assay: cell-based or functional assay

human C5a receptor (C5aR) (human), sequence (P21730 whole entry): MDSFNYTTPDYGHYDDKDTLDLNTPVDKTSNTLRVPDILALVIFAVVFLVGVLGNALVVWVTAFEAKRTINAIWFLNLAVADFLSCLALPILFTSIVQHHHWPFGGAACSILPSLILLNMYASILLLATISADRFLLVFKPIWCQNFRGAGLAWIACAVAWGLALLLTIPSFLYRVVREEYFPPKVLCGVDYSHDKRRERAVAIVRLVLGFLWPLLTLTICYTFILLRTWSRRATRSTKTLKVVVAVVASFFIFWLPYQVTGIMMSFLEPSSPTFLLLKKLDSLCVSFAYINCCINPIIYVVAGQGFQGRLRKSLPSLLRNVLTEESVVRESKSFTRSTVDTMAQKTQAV

Substance | C5aR blocking activity (in neutrophils), % of wt CHIPS1-121 (% of wt CHIPS1-121) | Chemotaxis IC50 [nM] | IC50 of inhibition of calcium release, ratio to CHIPS1-121 (fold of the IC50 of CHIPS1-121) | IC50 of inhibition of neutrophil migration towards C5a, ratio to CHIPS1-121 (fold of the IC50 of CHIPS1-121) | concentration needed for 50% inhibition of calcium release (IC50), neutrophils stimulated with C5a [nM]
ADC-1004 (from UniProt A6QIG7 59-138) | > 50 | 49 | 2 | 4 | 0.4
Wild-type CHIPS1-121 (Chemotaxis Inhibitory Protein of Staphylococcus aureus) (from UniProt A6QIG7 29-149) |  | 8.2 |  |  | 
